Results taken from the supplement of paper PMC7877785.
± gives the uncertainty stated by the source.

Test: self-splicing fitness, log relative to wild type (ln ratio); higher = more splicing; Tetrahymena group I intron in knt gene, E. coli kanamycin selection, DiMSum; sequences stand for … in CUCUCU…GGAGGGAAAAGUUAUCAGGCAUGCACCUGGUAGCUAGUCUUUAAACCAAUAGAUUGCAUCGGUUUAAAAGGCAAGACCGUCAAAUUGCGGGAAAGGGGUCAACAGCCGUUCAGUACCAAGUCUCAGGGGAAACUUUGAGAUGGCCUUGCAAAGGGUAUGGUAAUAAGCUGACGGACAUGGUCCUAACCACGCAGCCAAGUCCUAAGUCAACAGAUCUUCUGUUGAUAUGGAUGCAGUUCACAGACUAAAUGUCGGUCGGGGAAGAUGUAUUCUUCUCAUAAGAUAUAGUCGGACCUCUCCUUAAUGGGAGCUAGCGGAUGAAGUGAUGCAACACUGGAGCCGCUGGGAACUAAUUUGUAUGCGAAAGUAUAUUGAUUAGUUUUGGAGUACUCGUGGUCG
Procedure, shortened: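 A randomised library covering all eight P1ex-region intron nucleotides was built with the intron in the knt kanamycin-resistance gene on pET-22b(+) and held in E. coli BL21(DE3). Cells were grown overnight at 37°C or 30°C on LB agar, with or without 25 μg/mL kanamycin, plus 100 μg/mL carbenicillin, 50 μM IPTG and 0.2% rhamnose, and pooled colonies were amplicon-sequenced on an Illumina HiSeq 2500. DiMSum fitness is the error-weighted combination of wild-type-normalised replicate fold changes, kanamycin versus none.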

| Sequence | self-splicing fitness (ln) (30 °C) | self-splicing fitness (ln) (37 °C) |
| --- | --- | --- |
| AUGGAGCAAUAUUACGAACU | -1.95 ± 0.28 | -1.45 ± 0.24 |
| AUGGAGCAAUAUUACGAGCU | -3.12 ± 0.27 | -2.17 ± 0.37 |
| AUGGAGCAAUAUUACGAGGC | -3.37 ± 0.34 | -2.44 ± 0.23 |
| AUGGAGCAAUAUUACGAUAC | – | -1.71 ± 0.48 |
| AUGGAGCAAUAUUACGAUUG | -2.3 ± 0.25 | -3.12 ± 0.33 |
| AUGGAGCAAUAUUACGAUUU | -1.08 ± 0.12 | -1.6 ± 0.16 |
| AUGGAGCAAUAUUACGCACU | -0.628 ± 0.14 | -0.159 ± 0.18 |
| AUGGAGCAAUAUUACGCAUA | -1.53 ± 0.42 | -1.29 ± 0.23 |
| AUGGAGCAAUAUUACGCCAA | -1.45 ± 0.44 | -1.03 ± 0.38 |
| AUGGAGCAAUAUUACGCGAU | -2.66 ± 0.49 | -1.82 ± 0.4 |
| AUGGAGCAAUAUUACGCGUA | -2.62 ± 0.44 | -2.09 ± 0.31 |
| AUGGAGCAAUAUUACGCUAA | -3.13 ± 0.45 | -1.32 ± 0.45 |
| AUGGAGCAAUAUUACGCUAG | – | -1.66 ± 0.25 |
| AUGGAGCAAUAUUACGCUUC | – | -1.28 ± 0.32 |
| AUGGAGCAAUAUUACGGAAA | -3.4 ± 0.37 | -2.35 ± 0.29 |
| AUGGAGCAAUAUUACGGCAG | -3.04 ± 0.34 | -1.73 ± 0.5 |
| AUGGAGCAAUAUUACGGCCG | -1.27 ± 0.11 | -0.481 ± 0.19 |
| AUGGAGCAAUAUUACGGCUA | -0.572 ± 0.23 | -0.853 ± 0.26 |
| AUGGAGCAAUAUUACGGGAU | -3.03 ± 0.22 | -0.546 ± 0.19 |
| AUGGAGCAAUAUUACGGUCU | -1.54 ± 0.14 | -2.04 ± 0.21 |
| AUGGAGCAAUAUUACGUCGC | -2.11 ± 0.47 | -1.78 ± 0.48 |
| AUGGAGCAAUAUUACGUGAC | -1.88 ± 0.22 | -2.11 ± 0.28 |
| AUGGAGCAAUAUUACGUGAU | -2.73 ± 0.088 | -0.769 ± 0.08 |
| AUGGAGCAAUAUUACGUGUC | -4.57 ± 0.46 | -2.71 ± 0.28 |
| AUGGAGCAAUAUUACGUUCC | -2.13 ± 0.33 | – |

| Sequence | self-splicing fitness (ln) (30 °C) | self-splicing fitness (ln) (37 °C) |
| --- | --- | --- |
| AUGUAGCAAUAUUACGAACA | -0.529 ± 0.14 | 0.476 ± 0.15 |
| AUGUAGCAAUAUUACGACGA | -0.828 ± 0.11 | 0.039 ± 0.14 |
| AUGUAGCAAUAUUACGACGG | -2.09 ± 0.18 | -1.5 ± 0.17 |
| AUGUAGCAAUAUUACGAGUU | -1.68 ± 0.11 | -0.948 ± 0.11 |
| AUGUAGCAAUAUUACGAUGG | -3.4 ± 0.25 | -2.26 ± 0.26 |
| AUGUAGCAAUAUUACGAUUA | -0.6 ± 0.14 | 0.00536 ± 0.13 |
| AUGUAGCAAUAUUACGCCUC | -2.83 ± 0.41 | -1.61 ± 0.32 |
| AUGUAGCAAUAUUACGCGAA | -0.976 ± 0.088 | -1.04 ± 0.13 |
| AUGUAGCAAUAUUACGGCUU | 0.168 ± 0.095 | 0.71 ± 0.12 |
| AUGUAGCAAUAUUACGGGGU | -2.77 ± 0.23 | -3.12 ± 0.3 |
| AUGUAGCAAUAUUACGGUCU | -0.562 ± 0.096 | -0.014 ± 0.1 |
| AUGUAGCAAUAUUACGUAUU | -3.48 ± 0.21 | -1.44 ± 0.16 |
| AUGUAGCAAUAUUACGUCGA | -3.98 ± 0.26 | -2.06 ± 0.18 |
| AUGUAGCAAUAUUACGUCGC | – | -2.35 ± 0.46 |
| AUUAAGCAAUAUUACGACGC | -0.389 ± 0.11 | 0.175 ± 0.14 |
| AUUAAGCAAUAUUACGAGCC | – | -1.69 ± 0.28 |
| AUUAAGCAAUAUUACGAUAU | -1.2 ± 0.081 | -0.415 ± 0.096 |
| AUUAAGCAAUAUUACGAUCU | 0.226 ± 0.12 | -0.0178 ± 0.16 |
| AUUAAGCAAUAUUACGCAAG | -1.32 ± 0.14 | -1.27 ± 0.16 |
| AUUAAGCAAUAUUACGCAGC | -3.06 ± 0.22 | -2.72 ± 0.39 |
| AUUAAGCAAUAUUACGCCAG | -2.09 ± 0.15 | -1.51 ± 0.22 |
| AUUAAGCAAUAUUACGCCGA | -1.23 ± 0.26 | 0.0906 ± 0.26 |
| AUUAAGCAAUAUUACGCCGU | -0.62 ± 0.1 | -0.369 ± 0.14 |
| AUUAAGCAAUAUUACGGAGU | -1.69 ± 0.14 | -0.962 ± 0.15 |
| AUUAAGCAAUAUUACGGCAA | -0.363 ± 0.12 | 0.438 ± 0.15 |

| Sequence | self-splicing fitness (ln) (30 °C) | self-splicing fitness (ln) (37 °C) |
| --- | --- | --- |
| AUUAAGCAAUAUUACGGCAG | -1 ± 0.11 | 0.0222 ± 0.13 |
| AUUAAGCAAUAUUACGGCGC | -0.47 ± 0.15 | 0.103 ± 0.17 |
| AUUAAGCAAUAUUACGGGAC | -3.35 ± 0.22 | -0.882 ± 0.17 |
| AUUAAGCAAUAUUACGGGCA | -0.791 ± 0.12 | -0.507 ± 0.12 |
| AUUAAGCAAUAUUACGUACA | -1.2 ± 0.1 | -0.1 ± 0.13 |
| AUUAAGCAAUAUUACGUAGC | -4.67 ± 0.45 | -1.84 ± 0.22 |
| AUUAAGCAAUAUUACGUAUG | -2.74 ± 0.25 | -1.47 ± 0.21 |
| AUUAAGCAAUAUUACGUAUU | -2.15 ± 0.13 | -1.85 ± 0.16 |
| AUUAAGCAAUAUUACGUCCC | -0.338 ± 0.18 | 0.486 ± 0.23 |
| AUUAAGCAAUAUUACGUCUU | -0.854 ± 0.091 | -0.387 ± 0.11 |
| AUUAAGCAAUAUUACGUGCG | -0.862 ± 0.091 | 0.0786 ± 0.13 |
| AUUAAGCAAUAUUACGUGUA | -2.57 ± 0.14 | -1.66 ± 0.13 |
| AUUAAGCAAUAUUACGUUGC | -3.29 ± 0.23 | -3.01 ± 0.37 |
| AUUAAGCAAUAUUACGUUGG | -3.38 ± 0.28 | -2.23 ± 0.28 |
| AUUCAGCAAUAUUACGAAAC | -1.17 ± 0.061 | -0.231 ± 0.1 |
| AUUCAGCAAUAUUACGAACA | -0.36 ± 0.099 | -0.341 ± 0.11 |
| AUUCAGCAAUAUUACGAAUA | -2.49 ± 0.23 | -1.08 ± 0.17 |
| AUUCAGCAAUAUUACGAUGA | -0.652 ± 0.14 | -0.36 ± 0.15 |
| AUUCAGCAAUAUUACGAUGG | -2.57 ± 0.16 | -0.688 ± 0.15 |
| AUUCAGCAAUAUUACGAUGU | 0.173 ± 0.082 | 0.209 ± 0.099 |
| AUUCAGCAAUAUUACGCAUU | -0.534 ± 0.076 | -0.427 ± 0.095 |
| AUUCAGCAAUAUUACGCCCG | -1.85 ± 0.34 | – |
| AUUCAGCAAUAUUACGCGCG | -0.817 ± 0.12 | 0.873 ± 0.15 |
| AUUCAGCAAUAUUACGCGGA | -1.73 ± 0.19 | -0.735 ± 0.14 |
| AUUCAGCAAUAUUACGCUAG | -1.56 ± 0.13 | -0.152 ± 0.14 |

| Sequence | self-splicing fitness (ln) (30 °C) | self-splicing fitness (ln) (37 °C) |
| --- | --- | --- |
| AUUCAGCAAUAUUACGGCGC | -0.389 ± 0.099 | -0.346 ± 0.13 |
| AUUCAGCAAUAUUACGGGAU | -4.6 ± 0.27 | -2.32 ± 0.2 |
| AUUCAGCAAUAUUACGGGCC | -2.57 ± 0.33 | -1.82 ± 0.34 |
| AUUCAGCAAUAUUACGUAAG | -0.27 ± 0.069 | -0.22 ± 0.093 |
| AUUCAGCAAUAUUACGUACU | 0.26 ± 0.079 | -0.011 ± 0.095 |
| AUUCAGCAAUAUUACGUAGC | -3.44 ± 0.26 | -1.43 ± 0.19 |
| AUUCAGCAAUAUUACGUCCA | -1.19 ± 0.17 | -1.55 ± 0.23 |
| AUUCAGCAAUAUUACGUCUC | -1.97 ± 0.14 | -0.374 ± 0.13 |
| AUUCAGCAAUAUUACGUUUC | -3.75 ± 0.16 | -2.13 ± 0.24 |
| AUUGAGCAAUAUUACGACAC | -2.36 ± 0.19 | -1.45 ± 0.22 |
| AUUGAGCAAUAUUACGAUCU | -1.28 ± 0.11 | -0.471 ± 0.14 |
| AUUGAGCAAUAUUACGAUGU | -2.26 ± 0.11 | -1.41 ± 0.16 |
| AUUGAGCAAUAUUACGCACA | -1.81 ± 0.16 | -1.41 ± 0.24 |
| AUUGAGCAAUAUUACGCAUA | -3 ± 0.21 | -2.47 ± 0.24 |
| AUUGAGCAAUAUUACGCGUG | -2.28 ± 0.16 | -2.32 ± 0.23 |
| AUUGAGCAAUAUUACGCUGG | -2.76 ± 0.34 | -1.24 ± 0.25 |
| AUUGAGCAAUAUUACGGAUA | -2.15 ± 0.28 | -1.57 ± 0.25 |
| AUUGAGCAAUAUUACGGCAC | -3.48 ± 0.37 | -0.518 ± 0.33 |
| AUUGAGCAAUAUUACGGCAG | -2.56 ± 0.18 | -1.38 ± 0.27 |
| AUUGAGCAAUAUUACGGGAU | -3.29 ± 0.23 | -1.96 ± 0.15 |
| AUUGAGCAAUAUUACGGUAU | -2.06 ± 0.13 | -1.59 ± 0.18 |
| AUUGAGCAAUAUUACGGUUC | -3.69 ± 0.33 | -2.16 ± 0.25 |
